B1: Fab551-3 (Fab, V domains shown)
VH: EVQLVQSGAEVKKPGESLKISCKGSGYSFTSYWIGWVRQMPGKGLEWMGIIYPGDSDTRYSPSFQGQVTISADKSISTAYLQWSSLKASDTAMYYCARGLFWFFDYWGQGTLVTVSS
VL: EIVLTQSPATLSLSPGERATLSCRASQSVDSWLAWYQQKPGQAPRLLIYDASNRATGIPARFSGSGSGTDFTLTISSLEPEDFAVYYCQQFDTWPITFGQGTKVEIK
notes: Human Fab from a pIX phage library, made in E. coli; kappa light chain
B2: Fab169-34 (Fab, V domains shown)
VH: QVQLVQSGAEVKKPGSSVKVSCKASGGTFSSYAISWVRQAPGQGLEWMGGIIPIFGTANYAQKFQGRVTITADESTSTAYMELSSLRSEDTAVYYCAREGPASWDNWALDYWGQGTLVTVSS
VL: EIVLTQSPATLSLSPGERATLSCRASQSVSDWLAWYQQKPGQAPRLLIYYASNRATGIPARFSGSGSGTDFTLTISSLEPEDFAVYYCQQSSTAPITFGQGTKVEIK
notes: Human Fab from a pIX phage library, made in E. coli; kappa light chain; also called VH169-34/VL169-34
B3: Fab169-C2 (Fab, V domains shown)
VH: QVQLVQSGAEVKKPGSSVKVSCKASGGTFSSYAISWVRQAPGQGLEWMGGIIPIFGTANYAQKFQGRVTITADESTSTAYMELSSLRSEDTAVYYCARHWRLNYWGQGTLVTVSS
VL: EIVLTQSPATLSLSPGERATLSCRASQSVSSYLAWYQQKPGQAPRLLIYDASNRATGIPARFSGSGSGTDFTLTISSLEPEDFAVYYCQQRSNWPLTFGQGTKVEIK
notes: Human Fab from a pIX phage library, made in E. coli; kappa light chain (germline L6 scaffold); also called VH169-C2/VLL6
B4: Fab323-G1 (Fab, V domains shown)
VH: EVQLLESGGGLVQPGGSLRLSCAASGFTFSDYWMSWVRQAPGKGLEWVSGIWGSGSSTYYADSVKGRFTISRDNSKNTLYLQMNSLRAEDTAVYYCAKHWGRGGDLDYWGQGTLVTVSS
VL: EIVLTQSPATLSLSPGERATLSCRASQSVSSYLAWYQQKPGQAPRLLIYDASNRATGIPARFSGSGSGTDFTLTISSLEPEDFAVYYCQQRSNWPLTFGQGTKVEIK
notes: Human Fab from a pIX phage library, made in E. coli; kappa light chain (germline L6 scaffold); also called CNTO 3631
B5: Fab169-31 (Fab, V domains shown)
VH: QVQLVQSGAEVKKPGSSVKVSCKASGGTFSSYAISWVRQAPGQGLEWMGGIIPIFGTANYAQKFQGRVTITADESTSTAYMELSSLRSEDTAVYYCARHLYYMLDYWGQGTLVTVSS
VL: EIVLTQSPATLSLSPGERATLSCRASQSVADWLAWYQQKPGQAPRLLIYDASNRATGIPARFSGSGSGTDFTLTISSLEPEDFAVYYCQQYDGWPITFGQGTKVEIK
notes: Human Fab from a pIX phage library, made in E. coli; kappa light chain; also called CNTO 4093
B6: Fab169-47 (Fab, V domains shown)
VH: QVQLVQSGAEVKKPGSSVKVSCKASGGTFSSYAISWVRQAPGQGLEWMGGIIPIFGTANYAQKFQGRVTITADESTSTAYMELSSLRSEDTAVYYCARTSPSFDYWGQGTLVTVSS
VL: EIVLTQSPATLSLSPGERATLSCRASQSVRDFLAWYQQKPGQAPRLLIYYASNRATGIPARFSGSGSGTDFTLTISSLEPEDFAVYYCQQGFHWPFTFGQGTKVEIK
notes: Human Fab from a pIX phage library, made in E. coli; kappa light chain; also called VH169-47/VL169-47
B7: Fab169-G11 (Fab, V domains shown)
VH: QVQLVQSGAEVKKPGSSVKVSCKASGGTFSSYAISWVRQAPGQGLEWMGGIIPIFGTANYAQKFQGRVTITADESTSTAYMELSSLRSEDTAVYYCARDGYDIVLGIFDYWGQGTLVTVSS
VL: EIVLTQSPATLSLSPGERATLSCRASQSVSSYLAWYQQKPGQAPRLLIYDASNRATGIPARFSGSGSGTDFTLTISSLEPEDFAVYYCQQRSNWPLTFGQGTKVEIK
notes: Human Fab from a pIX phage library, made in E. coli; kappa light chain (germline L6 scaffold); also called VH169-G11/VLL6
B8: Fab169-64 (Fab, V domains shown)
VH: QVQLVQSGAEVKKPGSSVKVSCKASGGTFSSYAISWVRQAPGQGLEWMGGIIPIFGTANYAQKFQGRVTITADESTSTAYMELSSLRSEDTAVYYCARNIVGDYLLDYWGQGTLVTVSS
VL: EIVLTQSPATLSLSPGERATLSCRASQSVDDWLAWYQQKPGQAPRLLIYDASNRATGIPARFSGSGSGTDFTLTISSLEPEDFAVYYCQQGDTAPITFGQGTKVEIK
notes: Human Fab from a pIX phage library, made in E. coli; kappa light chain; also called VH169-64/VL169-64
B9: Fab 169-76 (Fab, V domains shown)
VH: QVQLVQSGAEVKKPGSSVKVSCKASGGTFSSYGISWVRQAPGQGLEWMGGIIPYFGTANYAQKFQGRVTITADESTSTAYMELSSLRSEDTAVYYCARPTNVLDYWGQGTLVTVSS
VL: EIVLTQSPATLSLSPGERATLSCRASQSVRKFLAWYQQKPGQAPRLLIYDASNRATGIPARFSGSGSGTDFTLTISSLEPEDFAVYYCQQSNNWPFTFGQGTKVEIK
notes: Human Fab from a pIX phage library, made in E. coli; kappa light chain (detected with anti-kappa-HRP); also called VH169-76/VL169-76
B10: Fab169-45 (Fab, V domains shown)
VH: QVQLVQSGAEVKKPGSSVKVSCKASGGTFSSYAISWVRQAPGQGLEWMGGIIPIFGTANYAQKFQGRVTITADESTSTAYMELSSLRSEDTAVYYCARRLGLFDYWGQGTLVTVSS
VL: EIVLTQSPATLSLSPGERATLSCRASQSVDSALAWYQQKPGQAPRLLIYDASNRATGIPARFSGSGSGTDFTLTISSLEPEDFAVYYCQQYDRWPLTFGQGTKVEIK
notes: Human Fab from a pIX phage library, made in E. coli; kappa light chain; also called VH169-45/VL169-45
B11: Fab323-B3 (Fab, V domains shown)
VH: EVQLLESGGGLVQPGGSLRLSCAASGFTFSSYAMSWVRQAPGKGLEWVSAIRYDGSSKYYADSVKGRFTISRDNSKNTLYLQMNSLRAEDTAVYYCAKNLKILDYWGQGTLVTVSS
VL: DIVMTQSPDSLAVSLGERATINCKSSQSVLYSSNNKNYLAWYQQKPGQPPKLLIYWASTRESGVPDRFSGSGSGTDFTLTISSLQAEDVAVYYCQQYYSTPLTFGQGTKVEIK
notes: Human Fab from a pIX phage library, made in E. coli; kappa light chain (germline B3 scaffold); also called VH323-B3/VLB3
B12: Fab323-G9 (Fab, V domains shown)
VH: EVQLLESGGGLVQPGGSLRLSCAASGFTFSSYWMHWVRQAPGKGLEWVSAISGSGGSTYYADSVKGRFTISRDNSKNTLYLQMNSLRAEDTAVYYCAKYLRWGSYGILDYWGQGTLVTVSS
VL: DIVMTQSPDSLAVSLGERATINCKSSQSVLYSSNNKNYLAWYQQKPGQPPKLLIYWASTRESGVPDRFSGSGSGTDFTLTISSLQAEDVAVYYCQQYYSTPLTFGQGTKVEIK
notes: Human Fab from a pIX phage library, made in E. coli; kappa light chain (germline B3 scaffold); also called VH323-G9/VLB3

Tests used:
[1] = biological target: T1, rat collagen I (rat, UniProt P02454 152-1207; P02466 86-1125); test: ELISA, plate coated with 10 µg/ml rat collagen I, anti-kappa-HRP, chemiluminescence
T1 construct: Bought collagen preparation
T1 sequence (P02454 152-1207, chain 1 of 2): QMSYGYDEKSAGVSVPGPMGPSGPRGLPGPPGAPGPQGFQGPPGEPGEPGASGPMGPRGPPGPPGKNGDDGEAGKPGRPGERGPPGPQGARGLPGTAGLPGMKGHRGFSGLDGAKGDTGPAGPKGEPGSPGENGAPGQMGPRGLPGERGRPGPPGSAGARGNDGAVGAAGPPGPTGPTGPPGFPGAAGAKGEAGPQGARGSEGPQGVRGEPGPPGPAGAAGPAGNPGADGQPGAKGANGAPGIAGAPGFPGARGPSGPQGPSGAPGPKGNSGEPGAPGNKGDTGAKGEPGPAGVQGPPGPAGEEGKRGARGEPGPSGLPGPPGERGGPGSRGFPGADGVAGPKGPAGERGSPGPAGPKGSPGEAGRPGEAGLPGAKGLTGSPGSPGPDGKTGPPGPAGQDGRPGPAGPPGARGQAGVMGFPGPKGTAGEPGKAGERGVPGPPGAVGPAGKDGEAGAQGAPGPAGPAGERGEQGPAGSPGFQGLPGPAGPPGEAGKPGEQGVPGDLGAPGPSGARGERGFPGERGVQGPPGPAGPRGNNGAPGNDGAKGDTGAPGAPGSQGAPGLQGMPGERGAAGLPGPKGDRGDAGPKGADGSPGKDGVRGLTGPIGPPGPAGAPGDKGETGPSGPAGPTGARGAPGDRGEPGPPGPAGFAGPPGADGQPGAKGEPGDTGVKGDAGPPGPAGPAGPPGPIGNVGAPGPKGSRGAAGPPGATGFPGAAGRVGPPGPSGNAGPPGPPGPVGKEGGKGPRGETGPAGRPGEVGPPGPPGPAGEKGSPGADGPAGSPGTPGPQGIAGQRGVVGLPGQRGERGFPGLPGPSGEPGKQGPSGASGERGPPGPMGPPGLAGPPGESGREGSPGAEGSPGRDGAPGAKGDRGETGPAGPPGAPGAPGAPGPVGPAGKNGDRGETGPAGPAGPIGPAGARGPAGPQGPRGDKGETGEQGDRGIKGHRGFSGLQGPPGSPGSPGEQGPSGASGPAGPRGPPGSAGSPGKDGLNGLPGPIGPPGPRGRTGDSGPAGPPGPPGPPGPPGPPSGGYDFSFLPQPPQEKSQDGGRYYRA
T1 sequence (P02466 86-1125, chain 2 of 2): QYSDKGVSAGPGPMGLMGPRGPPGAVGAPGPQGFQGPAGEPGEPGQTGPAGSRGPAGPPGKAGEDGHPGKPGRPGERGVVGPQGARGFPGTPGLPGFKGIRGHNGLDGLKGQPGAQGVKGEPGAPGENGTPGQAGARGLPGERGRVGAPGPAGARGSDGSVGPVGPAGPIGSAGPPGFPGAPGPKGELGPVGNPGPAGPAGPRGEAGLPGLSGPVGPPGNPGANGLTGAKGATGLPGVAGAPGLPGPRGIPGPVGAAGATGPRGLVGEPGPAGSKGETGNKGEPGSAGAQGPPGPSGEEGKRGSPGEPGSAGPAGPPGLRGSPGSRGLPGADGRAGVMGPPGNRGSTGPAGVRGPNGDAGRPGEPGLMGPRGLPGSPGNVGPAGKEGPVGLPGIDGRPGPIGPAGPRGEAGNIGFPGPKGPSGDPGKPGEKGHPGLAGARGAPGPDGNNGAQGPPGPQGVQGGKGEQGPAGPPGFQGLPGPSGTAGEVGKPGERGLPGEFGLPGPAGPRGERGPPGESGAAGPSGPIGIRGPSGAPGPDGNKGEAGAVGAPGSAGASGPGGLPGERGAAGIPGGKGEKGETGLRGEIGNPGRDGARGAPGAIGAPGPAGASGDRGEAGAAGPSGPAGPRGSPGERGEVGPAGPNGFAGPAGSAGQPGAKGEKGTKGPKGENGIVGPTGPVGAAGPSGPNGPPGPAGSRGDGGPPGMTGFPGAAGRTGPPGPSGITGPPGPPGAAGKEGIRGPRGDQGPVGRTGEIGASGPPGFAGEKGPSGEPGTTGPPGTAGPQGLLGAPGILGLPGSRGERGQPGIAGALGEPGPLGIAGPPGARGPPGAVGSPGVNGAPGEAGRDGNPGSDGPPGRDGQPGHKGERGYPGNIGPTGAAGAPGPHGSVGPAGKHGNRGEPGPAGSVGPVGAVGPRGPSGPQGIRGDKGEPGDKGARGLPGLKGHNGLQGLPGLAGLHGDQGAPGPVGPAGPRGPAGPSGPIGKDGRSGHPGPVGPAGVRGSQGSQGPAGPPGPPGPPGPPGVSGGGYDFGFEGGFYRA
Method: (§1) Maxisorp ELISA plates (Nunc) were coated with 10 μg/ml human collagen I (Chondrex), human collagen II (Chondrex), rat collagen I (Chondrex), rat collagen II (Chondrex) or with 5 μg/ml human collagen IV (Chemicon) or human collagen V (Chemicon), or with anti-Fd (the Binding Site) at 1 μg/ml, all in PBS, according to manufacturer's instructions. The wells were washed three times in TBST and blocked for one hour with 200 μL 3% milk in TBST. 100 μL of the Fab lysate was added onto the wells of the coated ELISA plates, and incubated 1 hour at room temperature. The wells were washed three times followed by addition of 100 μL of anti-kappa-HRP (Southern Biotech) at 1:5000 in PBS. The plates were incubated at room temperature for one hour, washed three times with TBST, and developed with BM Chemiluminescence ELISA Substrate (Roche Applied Science). The clones that bound to human and rat collagen II without binding to human collagen I, IV or V, or rat collagen I were sequenced and unique clones were further characterized.

[2] = biological target: T2, human collagen I (human, UniProt P02452 162-1218; P08123 80-1119); test: ELISA, plate coated with 10 µg/ml human collagen I, anti-kappa-HRP, chemiluminescence
T2 construct: Bought collagen preparation
Method: as §1

[3] = biological target: T3, rat collagen II (rat, UniProt P05539 114-1173); test: ELISA, plate coated with 10 µg/ml rat collagen II, 100 µL Fab lysate, anti-kappa-HRP, chemiluminescence
T3 construct: Bought collagen preparation
T3 sequence (P05539 114-1173 limits assumed): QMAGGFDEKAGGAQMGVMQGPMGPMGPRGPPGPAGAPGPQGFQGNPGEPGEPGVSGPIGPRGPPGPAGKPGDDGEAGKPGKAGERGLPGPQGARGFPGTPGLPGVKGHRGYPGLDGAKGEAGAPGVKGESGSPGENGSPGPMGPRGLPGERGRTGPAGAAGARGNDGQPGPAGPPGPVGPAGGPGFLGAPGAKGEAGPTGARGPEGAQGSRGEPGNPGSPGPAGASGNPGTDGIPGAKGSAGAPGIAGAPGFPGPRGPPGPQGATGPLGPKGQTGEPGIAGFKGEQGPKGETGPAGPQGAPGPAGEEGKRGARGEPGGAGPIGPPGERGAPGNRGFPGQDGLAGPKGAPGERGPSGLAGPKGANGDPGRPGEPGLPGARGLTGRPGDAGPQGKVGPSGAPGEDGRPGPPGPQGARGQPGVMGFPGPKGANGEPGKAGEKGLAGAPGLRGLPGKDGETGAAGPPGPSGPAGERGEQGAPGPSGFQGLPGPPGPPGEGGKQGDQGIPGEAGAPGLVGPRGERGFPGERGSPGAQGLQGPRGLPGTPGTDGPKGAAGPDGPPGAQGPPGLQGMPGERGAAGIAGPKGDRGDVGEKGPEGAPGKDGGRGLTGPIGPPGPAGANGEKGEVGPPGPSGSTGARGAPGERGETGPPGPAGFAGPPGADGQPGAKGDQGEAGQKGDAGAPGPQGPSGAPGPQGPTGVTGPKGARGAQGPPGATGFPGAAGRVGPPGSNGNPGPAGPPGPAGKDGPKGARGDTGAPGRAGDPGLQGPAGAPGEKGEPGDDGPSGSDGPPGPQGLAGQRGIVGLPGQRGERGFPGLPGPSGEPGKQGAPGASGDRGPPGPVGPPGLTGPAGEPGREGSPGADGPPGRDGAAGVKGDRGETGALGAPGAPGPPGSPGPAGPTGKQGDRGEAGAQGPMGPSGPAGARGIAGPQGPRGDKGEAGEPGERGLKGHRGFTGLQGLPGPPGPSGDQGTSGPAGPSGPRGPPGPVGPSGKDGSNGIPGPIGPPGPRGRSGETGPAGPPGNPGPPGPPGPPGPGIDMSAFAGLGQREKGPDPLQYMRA
Method: as §1

[4] = biological target: T4, human collagen II (human, UniProt P02458 182-1241); test: ELISA, purified Fab 10 ng/ml-10 ug/ml on coated collagen II
T4 construct: Purified human collagen II (Chondrex #2015), isolated from cartilage; also called huColII; human type II collagen
T4 sequence (P02458 182-1241 limits assumed): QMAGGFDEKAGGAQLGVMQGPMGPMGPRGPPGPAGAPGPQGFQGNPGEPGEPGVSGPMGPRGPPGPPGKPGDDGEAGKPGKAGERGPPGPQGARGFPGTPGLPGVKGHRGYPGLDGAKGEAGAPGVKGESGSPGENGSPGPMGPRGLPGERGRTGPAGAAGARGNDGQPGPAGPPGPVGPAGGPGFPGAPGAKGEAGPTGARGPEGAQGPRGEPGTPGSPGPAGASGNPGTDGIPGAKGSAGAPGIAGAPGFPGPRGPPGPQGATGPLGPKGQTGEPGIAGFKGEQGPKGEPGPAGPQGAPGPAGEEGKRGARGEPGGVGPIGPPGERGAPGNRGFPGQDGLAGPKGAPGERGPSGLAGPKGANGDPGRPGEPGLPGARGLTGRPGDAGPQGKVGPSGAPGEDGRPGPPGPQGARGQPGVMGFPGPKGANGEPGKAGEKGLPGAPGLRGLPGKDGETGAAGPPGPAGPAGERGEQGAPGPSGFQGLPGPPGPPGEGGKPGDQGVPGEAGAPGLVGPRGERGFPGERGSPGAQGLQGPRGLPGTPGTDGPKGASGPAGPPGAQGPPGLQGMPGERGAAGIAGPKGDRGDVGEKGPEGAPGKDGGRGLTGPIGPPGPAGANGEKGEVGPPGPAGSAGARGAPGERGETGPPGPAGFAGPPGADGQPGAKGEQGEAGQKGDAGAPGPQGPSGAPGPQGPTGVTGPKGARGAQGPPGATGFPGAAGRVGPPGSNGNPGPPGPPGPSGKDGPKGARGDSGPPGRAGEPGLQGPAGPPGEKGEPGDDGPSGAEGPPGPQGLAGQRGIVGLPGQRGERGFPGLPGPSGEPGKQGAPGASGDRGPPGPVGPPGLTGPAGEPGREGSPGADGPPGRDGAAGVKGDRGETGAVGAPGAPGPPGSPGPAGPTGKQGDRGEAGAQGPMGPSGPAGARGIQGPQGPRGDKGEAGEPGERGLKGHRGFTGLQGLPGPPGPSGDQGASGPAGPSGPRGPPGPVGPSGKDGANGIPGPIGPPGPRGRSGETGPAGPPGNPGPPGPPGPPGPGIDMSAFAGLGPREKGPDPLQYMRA
Method: as §1
EC50 values were obtained for select Fabs using ELISA assay as described above. In the assays, 100 microliters of each Fab was added in a concentration range between 10 ng/ml-10 μg/ml onto the wells.

[5] = biological target: T4, human collagen II; test: ELISA, plate coated with 10 µg/ml human collagen II, 100 µL Fab lysate, anti-kappa-HRP, chemiluminescence
Method: as §1

[6] = biological target: T3, rat collagen II; test: Biacore binding kinetics
[7] = biological target: T4, human collagen II; test: Biacore binding kinetics

Binder	binding result [1]	binding result [2]	binding result [3]	EC50 [4]	binding result [5]	Kd [6]	Kd [7]
B1	no binding (tested: not given (100 µL Fab lysate))	no binding (tested: not given (100 µL Fab lysate))	binds	0.114 µg/mL	–	–	–
B2	–	–	binds	–	binds	–	–
B3	no binding (tested: not given (100 µL Fab lysate))	no binding (tested: not given (100 µL Fab lysate))	binds	–	binds	–	–
B4	–	–	–	0.123 µg/mL	–	5 nM	6 nM
B5	no binding (tested: not given (100 µL Fab lysate))	no binding (tested: not given (100 µL Fab lysate))	–	0.113 µg/mL	–	75 nM	50 nM
B6	no binding (tested: not given (100 µL Fab lysate))	–	binds	–	binds	–	–
B7	no binding (tested: not given (100 µL Fab lysate))	–	binds	–	binds	–	–
B8	no binding (tested: not given (100 µL Fab lysate))	no binding (tested: not given (100 µL Fab lysate))	binds	–	binds	–	–
B9	no binding (tested: not given (100 µL Fab lysate))	no binding (tested: not given (100 µL Fab lysate))	binds	–	binds	–	–
B10	–	–	binds	–	binds	–	–
B11	no binding (tested: not given (100 µL Fab lysate))	no binding (tested: not given (100 µL Fab lysate))	–	–	–	–	–
B12	no binding (tested: not given (100 µL Fab lysate))	no binding (tested: not given (100 µL Fab lysate))	–	–	–	–	–

Reference: patent US20140220634A1 (Janssen / Centocor, published 2014)
